Measurements published in paper PMC5112516.
Changes are numbered by the printed parent chain.

What was measured:
Assay in all cases: tryptophan fluorescence quenching
Conditions in all cases: Fluorescence and EMSA: PBS (130 mM NaCl, 2.7 mM KCl, 10 mM Na2HPO4, 2 mM KH2PO4, pH 7.4), 25 C; ELISA: 10 mM KH2PO4, 50 mM KCl, pH 7, 0.1% Tween 20
[1] = target: T1, Sac7d (Sulfolobus acidocaldarius) (UniProt P13123)
T1 sequence: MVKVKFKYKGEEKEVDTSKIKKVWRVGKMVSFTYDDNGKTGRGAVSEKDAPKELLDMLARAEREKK

[2] = target: T2, Sso7d (Sulfolobus solfataricus) (UniProt P39476)
T2 sequence: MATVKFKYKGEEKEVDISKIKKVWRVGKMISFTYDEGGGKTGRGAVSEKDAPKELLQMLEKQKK

Sis7b = tested on: Sis7b
[3] = target: T3, Aho7a (Acidianus hospitalis) (UniProt F4B991)
T3 sequence: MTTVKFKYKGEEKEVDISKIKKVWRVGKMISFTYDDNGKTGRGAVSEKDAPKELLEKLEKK

Mcu7 = tested on: Mcu7
Sis7a = tested on: Sis7a
Mse7 = tested on: Mse7
[4] = target: T4, Aho7c (Acidianus hospitalis) (UniProt F4B8X5)
T4 sequence: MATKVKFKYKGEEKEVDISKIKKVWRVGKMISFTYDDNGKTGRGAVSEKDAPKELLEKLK

[5] = target: T5, Ssh7a (Sulfolobus shibatae) (UniProt P61990)
T5 sequence: T2 sequence with E14Q

Sto7 = tested on: Sto7
[6] = target: T6, Sac7e (Sulfolobus acidocaldarius) (UniProt P13125)
T6 sequence: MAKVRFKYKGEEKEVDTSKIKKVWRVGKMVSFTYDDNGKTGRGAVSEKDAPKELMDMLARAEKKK

[7] = target: T7, Aho7b (Acidianus hospitalis) (UniProt F4B9I5)
T7 sequence: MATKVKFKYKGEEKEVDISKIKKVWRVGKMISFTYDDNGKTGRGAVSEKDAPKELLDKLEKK

[8] = target: T8, Ssh7b (Sulfolobus shibatae) (UniProt O59632)
T8 sequence: T2 sequence with A2V, I17T

[9] = target: T1, Sac7d (Sulfolobus acidocaldarius); remark: listed apart in the source

Substance: calf-thymus DNA (ct-DNA), sonicated
- Kd [1]: 0.203 µM
- Kd [2]: 17 µM
- Kd (Sis7b): 16 µM
- Kd [3]: 16 µM
- Kd (Mcu7): 16 µM
- Kd (Sis7a): 15 µM
- Kd (Mse7): 15 µM
- Kd [4]: 16 µM
- Kd [5]: 18 µM
- Kd (Sto7): 14 µM
- Kd [6]: 11 µM
- Kd [7]: 13 µM
- Kd [8]: 22 µM
- Kd [9]: 13 µM
